Data reported in patent publication US20260049137A1 (JANUX THERAPEUTICS, published 2026).
Where two headings read alike, the source gives them in different places.

Key:
[1] = target: T1, TROP2 on TROP2 positive NCI-H292 or HCT116 tumor cells (UniProt P09758 27-323, limits assumed); experiment: cell-based or functional assay
T1 sequence (looked up): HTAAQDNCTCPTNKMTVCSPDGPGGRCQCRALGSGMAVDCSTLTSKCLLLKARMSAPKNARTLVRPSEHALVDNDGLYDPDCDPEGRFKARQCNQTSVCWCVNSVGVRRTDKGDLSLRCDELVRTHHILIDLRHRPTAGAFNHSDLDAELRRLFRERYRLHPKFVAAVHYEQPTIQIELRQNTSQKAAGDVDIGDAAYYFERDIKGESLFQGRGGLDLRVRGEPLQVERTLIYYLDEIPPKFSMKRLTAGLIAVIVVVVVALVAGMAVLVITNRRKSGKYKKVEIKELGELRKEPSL

[2] = target: T1, TROP2 on TROP2 positive NCI-H292 or …; experiment: cell-based or functional assay; remark: listed apart in the source
[3] = target: T1, TROP2 on TROP2 positive NCI-H292 or …; experiment: cell-based or functional assay; remark: listed apart in the source
[4] = target: T2, cynomolgus monkey TROP2 on recombinant HEK293 cells (cynomolgus monkey, UniProt A0A2K5UE71 27-323); experiment: cell-based or functional assay
T2 sequence: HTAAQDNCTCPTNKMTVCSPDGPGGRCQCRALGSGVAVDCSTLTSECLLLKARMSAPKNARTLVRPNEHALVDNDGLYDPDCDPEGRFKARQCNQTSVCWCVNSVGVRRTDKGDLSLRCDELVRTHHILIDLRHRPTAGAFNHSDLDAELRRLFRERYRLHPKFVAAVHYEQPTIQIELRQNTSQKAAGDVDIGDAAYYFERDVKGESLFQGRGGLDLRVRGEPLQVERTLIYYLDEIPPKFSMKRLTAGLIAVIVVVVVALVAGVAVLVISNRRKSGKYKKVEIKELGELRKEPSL

[5] = target: T1, TROP2 on TROP2 positive NCI-H292 or …; experiment: cell-based or functional assay; remark: listed apart in the source
[6] = target: T3, human CD3ε-biotin (biotinylated CD3ε) (human, UniProt P07766 23-126, limits assumed, biotinylated); experiment: ELISA: biotinylated CD3 captured on neutravidin coated plates, HRP secondary antibody, OD 450 nm
T3 construct: also called CD3e-bio; CD3e-biotin
Description: (§1) The TCE constructs diluted in buffer were then added to the antigen coated plates. Binding was detected using a standard horse radish peroxidase secondary antibody. The concentration of the TCE required to achieve 50% maximal signal (EC₅₀) was calculated using Graphpad Prism software.

[7] = target: T4, human TROP2-biotin (biotinylated TROP2) (human, UniProt P09758 27-274, limits assumed, biotinylated); experiment: ELISA: biotinylated TROP2 captured on neutravidin coated plates, HRP secondary antibody, OD 450 nm
T4 construct: also called hTROP2-Biotin
T4 sequence (looked up): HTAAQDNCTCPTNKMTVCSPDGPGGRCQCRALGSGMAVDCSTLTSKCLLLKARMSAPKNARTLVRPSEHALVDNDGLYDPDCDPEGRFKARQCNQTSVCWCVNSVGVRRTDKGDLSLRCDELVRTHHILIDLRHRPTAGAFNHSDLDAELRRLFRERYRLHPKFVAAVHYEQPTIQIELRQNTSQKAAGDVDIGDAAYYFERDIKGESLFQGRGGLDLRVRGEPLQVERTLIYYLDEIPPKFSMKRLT
Description: as §1

[8] = target: T1, TROP2 on TROP2 positive NCI-H292 or …; experiment: cell-based or functional assay; remark: listed apart in the source

T3 sequence (P07766 23-126 limits assumed): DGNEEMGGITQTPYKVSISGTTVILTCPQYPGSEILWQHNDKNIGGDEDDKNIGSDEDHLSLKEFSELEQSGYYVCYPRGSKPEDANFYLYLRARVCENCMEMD

B1: TCE-1: anti-CD3 scFv wt + linker + anti-TROP2 HC wt, with anti-TROP2 LC wt (bispecific antibody)
light: DIQLTQSPSSLSASVGDRVSITCKASQDVSIAVAWYQQKPGKAPKLLIYSASYRYTGVPDRFSGSGSGTDFTLTISSLQPEDFAVYYCQQHYITPLTFGAGTKVEIKRTVAAPSVFIFPPSDEQLKSGTASVVCLLNNFYPREAKVQWKVDNALQSGNSQESVTEQDSKDSTYSLSSTLTLSKADYEKHKVYACEVTHQGLSSPVTKSFNRGEC
heavy: not shown
- H292 Cytotox EC50 (pM) [1]: 0.7 pM
- H292 Cytotox EC50 (pM) [2]: 0.7 pM
- H292 Cytotox EC50 (pM) [3]: 0.7 pM

B2: TCE-19: anti-CD3 scFv (W233A) + linker + anti-TROP2 HC wt, with anti-TROP2 LC wt (bispecific antibody)
light: DIQLTQSPSSLSASVGDRVSITCKASQDVSIAVAWYQQKPGKAPKLLIYSASYRYTGVPDRFSGSGSGTDFTLTISSLQPEDFAVYYCQQHYITPLTFGAGTKVEIKRTVAAPSVFIFPPSDEQLKSGTASVVCLLNNFYPREAKVQWKVDNALQSGNSQESVTEQDSKDSTYSLSSTLTLSKADYEKHKVYACEVTHQGLSSPVTKSFNRGEC
heavy: not shown
- H292 Cytotox EC50 (pM) [2]: > 1000 pM

B3: TCE-24: anti-CD3 scFv (W238A) + linker + anti-TROP2 HC wt, with anti-TROP2 LC wt (bispecific antibody)
light: DIQLTQSPSSLSASVGDRVSITCKASQDVSIAVAWYQQKPGKAPKLLIYSASYRYTGVPDRFSGSGSGTDFTLTISSLQPEDFAVYYCQQHYITPLTFGAGTKVEIKRTVAAPSVFIFPPSDEQLKSGTASVVCLLNNFYPREAKVQWKVDNALQSGNSQESVTEQDSKDSTYSLSSTLTLSKADYEKHKVYACEVTHQGLSSPVTKSFNRGEC
heavy: not shown
- H292 Cytotox EC50 (pM) [2]: > 1000 pM

B4: TCE-26: anti-CD3 scFv (F240A) + linker + anti-TROP2 HC wt, with anti-TROP2 LC wt (bispecific antibody)
light: DIQLTQSPSSLSASVGDRVSITCKASQDVSIAVAWYQQKPGKAPKLLIYSASYRYTGVPDRFSGSGSGTDFTLTISSLQPEDFAVYYCQQHYITPLTFGAGTKVEIKRTVAAPSVFIFPPSDEQLKSGTASVVCLLNNFYPREAKVQWKVDNALQSGNSQESVTEQDSKDSTYSLSSTLTLSKADYEKHKVYACEVTHQGLSSPVTKSFNRGEC
heavy: not shown
- H292 Cytotox EC50 (pM) [2]: 20 pM

B5: TCE-28: anti-CD3 scFv + linker + anti-TROP2 HC wt, with anti-TROP2 LC wt (bispecific antibody)
light: DIQLTQSPSSLSASVGDRVSITCKASQDVSIAVAWYQQKPGKAPKLLIYSASYRYTGVPDRFSGSGSGTDFTLTISSLQPEDFAVYYCQQHYITPLTFGAGTKVEIKRTVAAPSVFIFPPSDEQLKSGTASVVCLLNNFYPREAKVQWKVDNALQSGNSQESVTEQDSKDSTYSLSSTLTLSKADYEKHKVYACEVTHQGLSSPVTKSFNRGEC
heavy: not shown
- H292 Cytotox EC50 (pM) [3]: 2.1 pM

B6: TCE-30: anti-CD3 scFv (H101A) + linker + anti-TROP2 (F108A) HC, with anti-TROP2 LC wt (bispecific antibody)
light: DIQLTQSPSSLSASVGDRVSITCKASQDVSIAVAWYQQKPGKAPKLLIYSASYRYTGVPDRFSGSGSGTDFTLTISSLQPEDFAVYYCQQHYITPLTFGAGTKVEIKRTVAAPSVFIFPPSDEQLKSGTASVVCLLNNFYPREAKVQWKVDNALQSGNSQESVTEQDSKDSTYSLSSTLTLSKADYEKHKVYACEVTHQGLSSPVTKSFNRGEC
heavy: not shown
- CynoTROP2+ HEK293 cells Cytotox EC50 (pM) [4]: 1 pM

B7: TCE-32: anti-CD3 scFv (F240A) + linker + anti-TROP2 (F108A) HC, with anti-TROP2 LC wt (bispecific antibody)
light: DIQLTQSPSSLSASVGDRVSITCKASQDVSIAVAWYQQKPGKAPKLLIYSASYRYTGVPDRFSGSGSGTDFTLTISSLQPEDFAVYYCQQHYITPLTFGAGTKVEIKRTVAAPSVFIFPPSDEQLKSGTASVVCLLNNFYPREAKVQWKVDNALQSGNSQESVTEQDSKDSTYSLSSTLTLSKADYEKHKVYACEVTHQGLSSPVTKSFNRGEC
heavy: not shown
- HCT116 Cytotox EC50 (pM) [5]: > 3000 pM
- CynoTROP2+ HEK293 cells Cytotox EC50 (pM) [4]: 5 pM

B8: TCE-49 (bispecific antibody)
light chain (anti-TROP2 LC wt): DIQLTQSPSSLSASVGDRVSITCKASQDVSIAVAWYQQKPGKAPKLLIYSASYRYTGVPDRFSGSGSGTDFTLTISSLQPEDFAVYYCQQHYITPLTFGAGTKVEIKRTVAAPSVFIFPPSDEQLKSGTASVVCLLNNFYPREAKVQWKVDNALQSGNSQESVTEQDSKDSTYSLSSTLTLSKADYEKHKVYACEVTHQGLSSPVTKSFNRGEC
heavy chain (anti-CD3 scFv N236A + linker + anti-TROP2 F108A HC): not shown
notes: also called TCE-49: anti-CD3 scFv (N236A) + linker + anti-TROP2 (F108A) HC, with anti-TROP2 LC wt
- EC50 [6]: 230 pM
- EC50 [7]: 870 pM

B9: TCE-27: anti-CD3 scFv + linker + anti-TROP2 HC wt, with anti-TROP2 LC wt (bispecific antibody)
light: DIQLTQSPSSLSASVGDRVSITCKASQDVSIAVAWYQQKPGKAPKLLIYSASYRYTGVPDRFSGSGSGTDFTLTISSLQPEDFAVYYCQQHYITPLTFGAGTKVEIKRTVAAPSVFIFPPSDEQLKSGTASVVCLLNNFYPREAKVQWKVDNALQSGNSQESVTEQDSKDSTYSLSSTLTLSKADYEKHKVYACEVTHQGLSSPVTKSFNRGEC
heavy: EVQLVESGGGLVQPGGSLKLSCAASGFTFNKYAMNWVRQASGKGLEWVGRIRSKYNNYATYYADSVKDRFTISRDDSKNTAYLQMNSLKTEDTAVYYCVRHGNFGNSYISYWAYWGQGTLVTVSSGGGGSGGGGSGGGGSQTVVTQEPSFSVSPGGTVTLTCRSSTGAVTSGNYANWVQQTPGQAPRGLIGGTKFLAPGVPDRFSGSILGNKAALTITGAQADDESDYYCVLWYSNRWVFGGGTKLTVLGGGGSQVQLQQSGSELKKPGASVKVSCKASGYTFTNYGMNWVKQAPGQGLKWMGWINTYTGEPTYTDDFKGRFAFSLDTSVSTAYLQISSLKADDTAVYFCARGGFGSSYWYFDVWGQGSLVTVSSASTKGPSVFPLAPSSKSTSGGTAALGCLVKDYFPEPVTVSWNSGALTSGVHTFPAVLQSSGLYSLSSVVTVPSSSLGTQTYICNVNHKPSNTKVDKKVEPKSC
- H292 Cytotox EC50 (pM) [3]: 0.5 pM

B10: TCE-33: anti-CD3 scFv + linker + anti-TROP2 (F108A) HC, with anti-TROP2 LC wt (bispecific antibody)
light: DIQLTQSPSSLSASVGDRVSITCKASQDVSIAVAWYQQKPGKAPKLLIYSASYRYTGVPDRFSGSGSGTDFTLTISSLQPEDFAVYYCQQHYITPLTFGAGTKVEIKRTVAAPSVFIFPPSDEQLKSGTASVVCLLNNFYPREAKVQWKVDNALQSGNSQESVTEQDSKDSTYSLSSTLTLSKADYEKHKVYACEVTHQGLSSPVTKSFNRGEC
heavy: EVQLVESGGGLVQPGGSLKLSCAASGFTFNKYAMNWVRQASGKGLEWVGRIRSKYNNYATYYADSVKDRFTISRDDSKNTAYLQMNSLKTEDTAVYYCVRHGNFGNSYISYWAYWGQGTLVTVSSGGGGSGGGGSGGGGSQTVVTQEPSFSVSPGGTVTLTCRSSTGAVTSGNYANWVQQTPGQAPRGLIGGTKFLAPGVPDRFSGSILGNKAALTITGAQADDESDYYCVLWYSNRWVFGGGTKLTVLGGGGSQVQLQQSGSELKKPGASVKVSCKASGYTFTNYGMNWVKQAPGQGLKWMGWINTYTGEPTYTDDFKGRFAFSLDTSVSTAYLQISSLKADDTAVYFCARGGFGSSYWYADVWGQGSLVTVSSASTKGPSVFPLAPSSKSTSGGTAALGCLVKDYFPEPVTVSWNSGALTSGVHTFPAVLQSSGLYSLSSVVTVPSSSLGTQTYICNVNHKPSNTKVDKKVEPKSC
- HCT116 Cytotox EC50 (pM) [5]: 73 pM
- H292 Cytotox EC50 (pM) [8]: 3 pM

B11: TCE-29: anti-CD3 scFv wt + linker + anti-TROP2 (F108A) HC, with anti-TROP2 LC wt (bispecific antibody)
light: DIQLTQSPSSLSASVGDRVSITCKASQDVSIAVAWYQQKPGKAPKLLIYSASYRYTGVPDRFSGSGSGTDFTLTISSLQPEDFAVYYCQQHYITPLTFGAGTKVEIKRTVAAPSVFIFPPSDEQLKSGTASVVCLLNNFYPREAKVQWKVDNALQSGNSQESVTEQDSKDSTYSLSSTLTLSKADYEKHKVYACEVTHQGLSSPVTKSFNRGEC
heavy: not shown
- HCT116 Cytotox EC50 (pM) [5]: 109 pM
- H292 Cytotox EC50 (pM) [8]: 5 pM
- CynoTROP2+ HEK293 cells Cytotox EC50 (pM) [4]: 0.2 pM

B12: TCE-35: anti-CD3 scFv wt + linker + anti-TROP2 (D109A) HC, with anti-TROP2 LC wt (bispecific antibody)
light: DIQLTQSPSSLSASVGDRVSITCKASQDVSIAVAWYQQKPGKAPKLLIYSASYRYTGVPDRFSGSGSGTDFTLTISSLQPEDFAVYYCQQHYITPLTFGAGTKVEIKRTVAAPSVFIFPPSDEQLKSGTASVVCLLNNFYPREAKVQWKVDNALQSGNSQESVTEQDSKDSTYSLSSTLTLSKADYEKHKVYACEVTHQGLSSPVTKSFNRGEC
heavy: not shown
- H292 Cytotox EC50 (pM) [8]: 1 pM
- CynoTROP2+ HEK293 cells Cytotox EC50 (pM) [4]: 0.1 pM

B13: TCE-48 (bispecific antibody)
light chain (anti-TROP2 LC wt): DIQLTQSPSSLSASVGDRVSITCKASQDVSIAVAWYQQKPGKAPKLLIYSASYRYTGVPDRFSGSGSGTDFTLTISSLQPEDFAVYYCQQHYITPLTFGAGTKVEIKRTVAAPSVFIFPPSDEQLKSGTASVVCLLNNFYPREAKVQWKVDNALQSGNSQESVTEQDSKDSTYSLSSTLTLSKADYEKHKVYACEVTHQGLSSPVTKSFNRGEC
heavy chain (anti-CD3 scFv L232A + linker + anti-TROP2 F108A HC): not shown
notes: also called TCE-48: anti-CD3 scFv (L232A) + linker + anti-TROP2 (F108A) HC, with anti-TROP2 LC wt
- EC50 [6]: 360 pM
- EC50 [7]: 1300 pM
